Paper PMC9829517
Substitutions are numbered along the chain they refer to. Names and notes keep the numbering of the source.

Columns and labels:
[1] = target: Ndd^JamL-LipPKS1* (Moorea producens | not stated)
[2] = target: LipPKS1*
[3] = target: DEBSM6*

Which combined titer of 7 and 8 in E. coli (maximum amount of product) [1] does the source give for JamC(E32T)-Cdd^JamK here?
The combined titer of 7 and 8 in E. coli (maximum amount of product) was 16 mg/L.

And the combined titer of 7 and 8 in E. coli, against unmodified JamC/LipPKS1* [1]?
Its combined titer of 7 and 8 in E. coli, against unmodified JamC/LipPKS1* is 39 fold.

B1: JamC (E32T) (natural protein)
chain: MENLTVETQNLTSLDNGSIEEKNGPTVDEVQTWLISYLSQLLDLEIEEISTSTSFNRYGLDSSASISLTSDFGDWISKEIDPTILYSYPTIEAMAEHFGA
modifications: holo-ACP, acyl chain loaded by JamA; residue not stated
How did the in vitro product formation assay: formation of 7 against wild-type JamC [2] turn out when B1 was run?
The in vitro product formation assay: formation of 7 against wild-type JamC was 7 fold.

B2: JamC (E32H) (natural protein)
chain: B1 chain with T32H
modifications: holo-ACP, acyl chain loaded by JamA; residue not stated
B2 was tested. Which in vitro product formation assay: formation of 7 against wild-type JamC [3] did it give?
Its in vitro product formation assay: formation of 7 against wild-type JamC is 2 fold.
